From patent US20110288009A1, “LEPTIN AND LEPTIN ANALOG CONJUGATES AND USES THEREOF” (Angiochem Inc., priority 2008, published 2011)

Key:
[1] = in situ brain perfusion; threshold definition of efficient transport; cited from earlier work
[2] = in situ perfusion assay in lean and diet-induced obese (DIO) mice; format: in vivo; conditions: DIO mice compared with lean mice; FIG. 4A
Excerpt: Blood Flow Metab. 20(2):381-386.

ob/ob mice = test: body weight of ob/ob mice treated with recombinant leptin; format: in vivo; conditions: 0.1 mg/mouse or 0.25 mg/mouse daily, FIG. 21
Protocol: As a control, we tested the ability of recombinant leptin to reduce body weight in ob/ob mice using either 0.1 mg/mouse or 0.25 mg/mouse daily.

| Molecule | transport across the BBB relative to that of Angiopep-1 (250 nM) [1] [%] | transport across the BBB in DIO mice versus lean mice [2] | body weight (ob/ob mice) |
| --- | --- | --- | --- |
| T F F Y G G S R G K R N N F R T E E Y (TFFYGGSRGKRNNFRTEEY) [Angiopep-6] | 38.5 |  |  |
| leptin: recombinant leptin used as control and comparator in Example 5 (protein, UniProt P41160 22-167, looked up) Leptin: VPIQKVQDDTKTLIKTIVTRINDISHTQSVSAKQRVTGLDFIPGLHPILSLSKMDQTLAVYQQVLTSLPSQNVLQIANDLENLRDLLHLLAFSKSCSLPQTSGLQKPESLDGVLEASLYSTEVVALSRLQGSLQDILQQLDVSPEC |  | reduced as compared to in lean mice | reduce body weight in these mice in a dose-dependent manner |
